In assay [1] the target is T1, extracellular domain (ECD) of human IGSF11 (VSIG3), HIS-tagged (human, UniProt Q5DX21 23-241, biotinylated in the ELISA of Example 4 (site not stated)).
T1 construct: also called HIS-IGSF11; IGSF11-HIS; not shown: HIS6 tag
T1 sequence: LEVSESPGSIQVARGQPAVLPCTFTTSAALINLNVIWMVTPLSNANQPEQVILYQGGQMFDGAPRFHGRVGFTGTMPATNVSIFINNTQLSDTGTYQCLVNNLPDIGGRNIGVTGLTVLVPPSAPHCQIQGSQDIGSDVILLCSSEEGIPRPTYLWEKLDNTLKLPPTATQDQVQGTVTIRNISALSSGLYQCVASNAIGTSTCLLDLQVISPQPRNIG
In words: ELISA, coated IGSF11-HIS, IgG1 format; EC50 grade (* >1 nM, ** 0.05-1 nM, *** 0.02-0.05 nM, **** <0.02 nM).

The target in assay [2] is T2, human IGSF11 (VSIG3) expressed on the surface of cells (human, UniProt Q5DX21 23-431).
T2 construct: one molecule for all cell lines; the cell line is named under assay; also called IGSF11-expressing cells; HEK-OE
T2 sequence: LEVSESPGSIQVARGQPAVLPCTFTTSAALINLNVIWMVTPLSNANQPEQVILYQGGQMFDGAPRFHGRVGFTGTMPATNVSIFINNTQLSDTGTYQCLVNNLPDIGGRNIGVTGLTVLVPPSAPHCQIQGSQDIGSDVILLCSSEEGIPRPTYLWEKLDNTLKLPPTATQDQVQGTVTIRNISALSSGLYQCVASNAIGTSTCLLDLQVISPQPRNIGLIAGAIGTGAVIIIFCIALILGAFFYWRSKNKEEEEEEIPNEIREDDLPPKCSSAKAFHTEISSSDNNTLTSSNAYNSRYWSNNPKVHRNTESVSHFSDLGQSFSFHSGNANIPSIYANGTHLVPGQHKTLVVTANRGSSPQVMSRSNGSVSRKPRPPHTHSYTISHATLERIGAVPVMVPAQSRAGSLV
Nature of the assay: FACS, IgG1 format, recombinant HEK cells expressing IGSF11 (HEK-OE). (In general: A flow cytometer gives signals particle by particle.)

Assay [3] deals with T2, human IGSF11 (VSIG3) expressed on the …. In words: FACS on M579-A2-luc cells treated with scrambled control siRNA (SC).
Assay [4] has the same target. Nature of the assay: FACS on DMS 273 cells treated with scrambled control siRNA (SC).
Assay [5] deals with CL-11 (C). In words: FACS on CL-11 cells (do not express IGSF11; negative cell line) treated with scrambled control siRNA (SC).
Assay [6] deals with T2, human IGSF11 (VSIG3) expressed on the …. In words: FACS on M579-A2-luc cells treated with IGSF11 siRNA (KD: target knocked down, specificity control).
For assay [7], the target named is CL-11 (C). Nature of the assay: FACS on CL-11 cells (do not express IGSF11; negative cell line) treated with IGSF11 siRNA (KD).
In assay [8] the target is T2, human IGSF11 (VSIG3) expressed on the …. In words: FACS on DMS 273 cells treated with IGSF11 siRNA (KD: target knocked down, specificity control).
Assay [9] concerns the target T3, extracellular domain (ECD) of human IGSF11 (VSIG3), biotinylated (human, UniProt Q5DX21 23-241, biotinylated (site not stated)).
T3 construct: also called human IGSF11 protein
T3 sequence: T1 sequence
Nature of the assay: ELISA, scFv; RFU grade (*** >1.0, ** 0.5-1.0, * 0.1-0.5). Background: An ELISA detects its analyte on a solid surface through an enzyme-linked reagent.

Assay [10] addresses T4, extracellular domain (ECD) of murine IGSF11, biotinylated (mouse, UniProt P0C673 23-240, biotinylated (site not stated)).
T4 construct: also called Mouse IGSF11; murine IGSF11 protein
T4 sequence: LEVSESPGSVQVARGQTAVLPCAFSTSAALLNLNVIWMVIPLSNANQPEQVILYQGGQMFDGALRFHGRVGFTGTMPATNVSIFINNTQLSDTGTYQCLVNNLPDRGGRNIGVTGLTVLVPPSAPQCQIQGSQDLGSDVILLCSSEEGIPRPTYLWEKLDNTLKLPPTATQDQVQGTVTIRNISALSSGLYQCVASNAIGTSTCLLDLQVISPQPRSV
Described as above.

Positions count from the first letter of the chain named.

The term EC50 denotes the concentration giving half of the maximal effect.

B1: A-025 (human IgG1 format) (antibody, V domains shown)
VH: QVQLVQSGAEVKKPGSSVKVSCKASGGTFSSYAISWVRQAPGQGLEWMGGIIPIFGTANYAQKFQGRVTITADESTSTAYMELTSLRSEDTAVYYCARGGWLRQNWFDPWGQGTLVTVSS
VL: SSELTQDPAVSVALGQTVRITCQGDSLRSYYASWYQQKPGQAPVLVIYGKNNRPSGIPDRFSGSSSGNTASLTITGAQAEDEADYYCNSRDSSGNHPRVFGGGTKLTVL
notes: human IgG1 format
Turning to B1, in assay [1], the EC50 is 50 to 1000 pM.

B2: A-009 (human IgG1 format) (antibody, V domains shown)
VH: B1 VH with T84S, G100R, W101G, L102F, R103G, Q104E, N105L, W106Y, P109Y
VL: ETTLTQSPATLSVSPGERATLSCRASQGVRSNIAWYQQKPGQAPRLLIYDSSTRATGIPARFSGSGSGTEFTLTISSLQSEDFAVYSCQQYKNWPRTFGQGTKVEIK
notes: human IgG1 format
Molecule B2 showed an EC50 in assay [1] of 50 to 1000 pM.

B3: A-023 (human IgG1 format) (antibody, V domains shown)
VH: QVQLVQSGAEVKKPGSSVKVSCKASGGTFSSYAISWVRQAPGQGLEWMGGIIPIFGTANYAQKFQGRVTITADESTSTAYMELSSLRSEDTAVYYCARPKYSSGWFYYYGMDVWGQGTTVTVSS
VL: QSVLTQPPSVSAAPGQKVTISCSGSSSNIGNNYVSWYQQLPGTAPKLLIYDNNKRPSGIPDRFSGSKSGTSATLGITGLQTGDEADYYCGTWDSSLSVVFGGGTKLTVL
notes: human IgG1 format
For B3, the EC50 in assay [1] was in the range of 50 to 1000 pM.

B4: A-035 (human IgG1 format) (antibody, V domains shown)
VH: QVQLVQSGAEVKKPGASVKVSCKASGYTFTGYYMHWVRQAPGQGLEWMGWINPNSGNTGYAQKFQGRVTMTRNTSISTAYMELSSLRSEDTAVYYCARGRLERGYWYFDLWGRGTLVTVSS
VL: NFMLTQPHSVSESPGRTVTISCTRSSGSITSNYVQWYQQRPGSAPTILIYEDKERPSEVPDRFSGSIDISSNSASLTISGLKTEDEADYYCQSYGGTSQGVLFGGGTKVTVL
notes: human IgG1 format
On to B4, for which the EC50 in [1] was 20 to 50 pM; in assay [2], greater than 50000 pM.

B5: A-008 (human IgG1 format) (antibody, V domains shown)
VH: QLQLQESGPGLVKPSETLSLTCTVSGGSISSSGYYWGWIRQPPGKGLEWIGSIYYSGSTYYNPSLKSRVTISVDTSKNQFSLKLSSVTAADTAVYYCARHRVRFGEFDAFDIWGQGTMVTVSS
VL: QAVLTQPPSVSGAPGERVTLSCTGTSSNVGADFDVHWYQQFPGTAPRLLIFGSDNRPSGVPDRFSGSKSGTSASLAITGLQVEDEADYYCQAYDVRLSGWVFGGGTKLTVL
notes: human IgG1 format
Take B5: in assay [1], the EC50 lay in the range of 20 to 50 pM.

B6: A-015 (human IgG1 format) (antibody, V domains shown)
VH: not shown
VL: QPVLTQSPSASASLGASVKLTCTLSSGHTNYAIAWRQQQPGKAPRYLMLLNSDGSHTRGGGIPDRFSGSSSGAERYLTISSLQSEDEADYYCMIWHNNAWVFGGGTKLAVL
notes: human IgG1 format
Consider B6, for which the percentage binding is 1.17% in assay [3]; 5.97% in assay [4]; 1.95% in [5]; 1.3% in assay [6]; 2.91% in assay [7]; 1.6% in assay [8].

B7: A-016 (human IgG1 format) (antibody, V domains shown)
VH: QVQLQESGAEVKKPGASVKVSCKASGYTFTGYYMHWVRQAPGQGLEWMGGIIPIFGTANYAQKFQGRVTITADESTSTAYMELSSLRSEDTAVYYCAGAGMELTRSGAYYYYGMDVWGQGTTVTVSS
VL: QSALTQPASVSGSPGQSITISCTGTSSDIGGYTFVSWYQQHPGKAPKVMIHDVNNRPSGISNRFSGSKSGNTASLTISGLQAEDEADYYCSSVTSTNTYVFGTGTKVTVL
notes: human IgG1 format
In assay [1], B7 returned an EC50 of less than 20 pM.

B8: A-010 (human IgG1 format) (antibody, V domains shown)
VH: QVQLVQSGAEVKKPGASVKVSCKASGYTFTSYGISWVRQAPGQGLEWMGWISAYNGNTNYAQKLQGRVTMTTDTSTSTAYMELRSLRSDDTAVYYCARVPAWSGQFDYWGQGTLVTVSS
VL: QSALTQPASVSGSPGQSITISCTGSSSDVGGYNYVSWYQQYPGKAPKLMIYDVRSRPSGVSNRFSGSKSGNTASLTISGLQAEDEADYYCTSYTSSNTLVIFGGGTKVTVL
notes: human IgG1 format
Consider B8, for which, in assay [1], the EC50 is less than 20 pM.

B9: A-003 (human IgG1 format) (antibody, V domains shown)
VH: VQLVQSGAEVKKPGSSVKVSCKASGGTFSSYAISWVRQAPGQGLEWMGGIIPIFGTANYAQKFQGRVTITADESTSTAYMELSSLRSEDTAVYYCASPRIQLWAAGGFDYWGQGTLVTVSS
VL: QSALTQPASVSGSPGQSITISCTGTSSDVGGYNLVSWYQQHPGKAPKLMIYDVSNRPSGVSNRFSGSKSGNTASLTISGLQAEDEADYYCSSFTTSTTLVFGGGTKLTVL
notes: human IgG1 format
With B9, the EC50 in assay [1] is 50 to 1000 pM.

B10: A-029 (human IgG1 format) (antibody, V domains shown)
VH: QVQLVQSGAEVKKPGSSVKVSCKASGGTFSSYAISWVRQAPGQGLEWMGGIIPIFGTANYAQKFQGRVTITADESTGTAYMELSSLRSEDTAVYYCARSYYYYYGMDVWGQGTTVTVSS
VL: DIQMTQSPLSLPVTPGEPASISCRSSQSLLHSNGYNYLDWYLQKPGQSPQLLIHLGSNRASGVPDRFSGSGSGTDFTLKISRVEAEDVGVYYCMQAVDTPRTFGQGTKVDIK
notes: human IgG1 format
As for B10, the EC50 in assay [1] lay in the range of 50 to 1000 pM.

B11: A-029 (scFv format) (scFv, V domains shown)
VH: B10 VH
VL: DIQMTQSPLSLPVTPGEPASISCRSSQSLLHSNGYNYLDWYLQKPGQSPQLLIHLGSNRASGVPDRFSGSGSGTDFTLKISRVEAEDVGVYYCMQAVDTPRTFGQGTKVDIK
notes: scFv
For the molecule B11, the “relative fluorescent units (RFU), ELISA” value in assay [9] and in assay [10] was 0.1 to 0.5 rfu each time.

B12: A-033 (human IgG1 format) (antibody, V domains shown)
VH: QVQLVQSGAEVKKPGASVKVSCKASGYTFTSYGISWVRQAPGQGLEWMGWISAYNGNTNYAQKLQGRVTMTTDTSTSTAYMELRSLRSDDTAVYYCARDHSIVGATTFDYWGQGTLVTVSS
VL: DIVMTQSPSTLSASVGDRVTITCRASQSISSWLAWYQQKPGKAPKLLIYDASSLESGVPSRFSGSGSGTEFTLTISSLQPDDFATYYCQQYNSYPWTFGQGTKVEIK
notes: human IgG1 format
B12 yielded an EC50 in [1] of 20 to 50 pM.

B13: A-027 (scFv format) (scFv, V domains shown)
VH: QVQLVQSGAEVKKPGSSVKVSCKASGGTFSSYAISWVRQAPGQGLEWMGGIIPIFGTANYAQKFQGRVTITADKSTSTAYMELSSLRSEDTAVYYCARARGSTWGYFDYWGQGTLVTVSS
VL: EIVLTQSPASLSLSPGERVTLSCRASQSVSNYLAWYQQKPGQAPRLLIYDASNRATGIPARFSGSGSGTDFTLTISSLEPEDFAVYYCQQRDNWPLTFGGGTKVEIK
notes: scFv
Take B13: the “relative fluorescent units (RFU), ELISA” value in assay [9] and in [10] was 0.1 to 0.5 rfu in each case.

B14: A-028 (scFv format) (scFv, V domains shown)
VH: QVQLVQSGAEVKKPGSSVKVSCKASGGTFSSYAISWVRQAPGQGLEWMGGIIPIFGTANYAQKFQGRVTITADESTSTAYMELSSLRSEDTAVYYCARVGVEYQLLWYFDYWGQGTLVTVSS
VL: DIQMTQSPSSLSASVGDRVTLTCRTSQTISNYLNWYQQKPGKAPKLLVYAASNLQSWVPSRFSGSGSGTDFTLTISSLQPEDFATYYCQQSYNASFGGGTKVEFK
notes: scFv
Regarding B14, the “relative fluorescent units (RFU), ELISA” value in [9] and in assay [10] was 0.1 to 0.5 rfu throughout.

B15: A-001 (human IgG1 format) (antibody, V domains shown)
VH: EVQLVESGGGLVKPGGSLRLSCAASGFTFSSYSMNWVRQAPGKGLEWVSSISSSSSYIYYADSVKGRFTISRDNAKNSLYLQMNSLRAEDTAVYYCVRSIIVQALGITSVFDIWGQGTMVTVSS
VL: AIRLTQSPSSLSASVGDRVTISCRASQIISNHLNWYQQKPGKAPKLLIYAASRLQTGVPSRFSGSGSETDYTLTISSLQPEDFATYYCQQSYSNPRTFGHGTKVEIK
notes: human IgG1 format
On to B15, for which the EC50 in [1] is less than 20 pM.
